Patent US12077763B2, “RNA-based control of powdery mildew” (Greenlight Biosciences, Inc., priority 2021, dated 2024)

B1: GS3615 (nucleic acid)
sense: UAUCAUUAGUAAUCCCUUUAGCGAUGGCGCCAUUAGUACCUUCGGUUGAGUUGCCAACAUUAGAUACUUCGCCAGCACCAUCAGAUACAUGUGUAGUUAAUUCUUCAGAGGUCUUGUCCGGACUAUCUAUUGCGAUCUUUACUGCAAUCUCACGACCUUGAACUUCUUUUCCAUUCAUUUCGGCAACAGCCCUAUUUUGAAGUUCAUUAGAUGCUAAGUUCACAAAGCCAAACCCACGGCCUUUCCGAGG
antisense: CCUCGGAAAGGCCGUGGGUUUGGCUUUGUGAACUUAGCAUCUAAUGAACUUCAAAAUAGGGCUGUUGCCGAAAUGAAUGGAAAAGAAGUUCAAGGUCGUGAGAUUGCAGUAAAGAUCGCAAUAGAUAGUCCGGACAAGACCUCUGAAGAAUUAACUACACAUGUAUCUGAUGGUGCUGGCGAAGUAUCUAAUGUUGGCAACUCAACCGAAGGUACUAAUGGCGCCAUCGCUAAAGGGAUUACUAAUGAUA
B2: GS3616 (nucleic acid)
sense: UUAAAAGUUGCGGUUUAACUUAAGCUGUAGCCGCAACAGUUUCAGCUGUCCCAGCUAGUCCUUCUGAUUGAAGUUUAUCAUUAGUAAUCCCUUUAGCGAUGGCGCCAUUAGUACCUUCGGUUGAGUUGCCAACAUUAGAUACUUCGCCAGCACCAUCAGAUACAUGUGUAGUUAAUUCUUCAGAGGUCUUGUCCGGACUAUCUAUUGCGAUCUUUACUGCAAUCUCACGACCUUGAACUUCUUUUCCAUUCAUUUCGGCAACAGCCCUAUUUUGAAGUUCAUUAGAUGCUAAGUUCACAAAGCCAAACCCACGGCCUUUCCGAGGUUCGUUGCGGGCCUGAAGCUUUUUAACCAUGAAUUUUGGAAUAGGACGCAGAGCAAUUUUGGCAGAUACUGGUUC
antisense: GAACCAGUAUCUGCCAAAAUUGCUCUGCGUCCUAUUCCAAAAUUCAUGGUUAAAAAGCUUCAGGCCCGCAACGAACCUCGGAAAGGCCGUGGGUUUGGCUUUGUGAACUUAGCAUCUAAUGAACUUCAAAAUAGGGCUGUUGCCGAAAUGAAUGGAAAAGAAGUUCAAGGUCGUGAGAUUGCAGUAAAGAUCGCAAUAGAUAGUCCGGACAAGACCUCUGAAGAAUUAACUACACAUGUAUCUGAUGGUGCUGGCGAAGUAUCUAAUGUUGGCAACUCAACCGAAGGUACUAAUGGCGCCAUCGCUAAAGGGAUUACUAAUGAUAAACUUCAAUCAGAAGGACUAGCUGGGACAGCUGAAACUGUUGCGGCUACAGCUUAAGUUAAACCGCAACUUUUAA
B3: GS3603 (nucleic acid)
sense: AGUCCAAAAGAGUCCAGGAGUUCGGUAUCGGAUCAUAACACCAAACAUCGUUAUACCAUUGAAGACCAUUUGUUCCGCCAAACAAGUAAAGCUUUUCAUUAUAUGUCACAACUGAGUGAUUUGUUCUAGCUGAUGGUAUUUGUCCUACUGGGGGUCCACCAUCCUCACUAUUUUUAAUGAGAAUUUCCCACCUGUUCGUAGGGACUUGCAAAAGAUUCAAAUCAAAAGCCACAAGGUCAUUCAUAAAAUAACCCUCUACUUGCCCCCCGAAUACGUAGAUUUUAGACCCUAGUAUAUUGA
antisense: UCAAUAUACUAGGGUCUAAAAUCUACGUAUUCGGGGGGCAAGUAGAGGGUUAUUUUAUGAAUGACCUUGUGGCUUUUGAUUUGAAUCUUUUGCAAGUCCCUACGAACAGGUGGGAAAUUCUCAUUAAAAAUAGUGAGGAUGGUGGACCCCCAGUAGGACAAAUACCAUCAGCUAGAACAAAUCACUCAGUUGUGACAUAUAAUGAAAAGCUUUACUUGUUUGGCGGAACAAAUGGUCUUCAAUGGUAUAACGAUGUUUGGUGUUAUGAUCCGAUACCGAACUCCUGGACUCUUUUGGACU
B4: GS3610 (nucleic acid)
sense: AUCAAACUGGGAGAGAUCAGAAACUAAGCUUGUGGAGCUGUGAAUCUUAACAGGGGUGUAAGCAUUUAGUUCCGAAACUCGUUGAGCUGAGACAAUAUCUCUAGGUUUUCCUAUAUCUUCUGGGUUAAGAAAGAAUUGAGAUGAUAGGUCAGCGAUAGUUGCGGGAGCGGGAUCGUAUAAUGUUAGACUUUUAACUCCAGCCAGAGCUAUAUUCUUAGCUAUUUCGAUACCAAGACCUUUCAAGCCAAUAAUAAGAAUAUUCGAUGCACUCAUUCGUUUCAUAGCCUCGUGUCCAAGAAC
antisense: GUUCUUGGACACGAGGCUAUGAAACGAAUGAGUGCAUCGAAUAUUCUUAUUAUUGGCUUGAAAGGUCUUGGUAUCGAAAUAGCUAAGAAUAUAGCUCUGGCUGGAGUUAAAAGUCUAACAUUAUACGAUCCCGCUCCCGCAACUAUCGCUGACCUAUCAUCUCAAUUCUUUCUUAACCCAGAAGAUAUAGGAAAACCUAGAGAUAUUGUCUCAGCUCAACGAGUUUCGGAACUAAAUGCUUACACCCCUGUUAAGAUUCACAGCUCCACAAGCUUAGUUUCUGAUCUCUCCCAGUUUGAU
B5: GS3609 (nucleic acid)
sense: CUGUCAAUAUUACAGCUUGAUAUGAAUCAAACUGGGAGAGAUCAGAAACUAAGCUUGUGGAGCUGUGAAUCUUAACAGGGGUGUAAGCAUUUAGUUCCGAAACUCGUUGAGCUGAGACAAUAUCUCUAGGUUUUCCUAUAUCUUCUGGGUUAAGAAAGAAUUGAGAUGAUAGGUCAGCGAUAGUUGCGGGAGCGGGAUCGUAUAAUGUUAGACUUUUAACUCCAGCCAGAGCUAUAUUCUUAGCUAUUUCGAUACCAAGACCUUUCAAGCCAAUAAUAAGAAUAUUCGAUGCACUCAUUCGUUUCAUAGCCUCGUGUCCAAGAACGUAGAGUUGCCUACUGUAUAAAGAC
antisense: GUCUUUAUACAGUAGGCAACUCUACGUUCUUGGACACGAGGCUAUGAAACGAAUGAGUGCAUCGAAUAUUCUUAUUAUUGGCUUGAAAGGUCUUGGUAUCGAAAUAGCUAAGAAUAUAGCUCUGGCUGGAGUUAAAAGUCUAACAUUAUACGAUCCCGCUCCCGCAACUAUCGCUGACCUAUCAUCUCAAUUCUUUCUUAACCCAGAAGAUAUAGGAAAACCUAGAGAUAUUGUCUCAGCUCAACGAGUUUCGGAACUAAAUGCUUACACCCCUGUUAAGAUUCACAGCUCCACAAGCUUAGUUUCUGAUCUCUCCCAGUUUGAUUCAUAUCAAGCUGUAAUAUUGACAG
B6: GS3617 (nucleic acid)
sense: UCAUGGAAAGAGUAGUUGGAUACGAGAUAUAGAAGGCUGUGAUGCCUUCAGUGCGAUAGAUAUAGCGGGCACAAUCACUCAGUGAUCUAUAAAUUUUGCGAGAGUUAUGCAUUUGCAUUCUUUGCUUUAUUACAUCAAAUGGGUUCAUUAAAGCAUCACUUGCAAUUGUUGCGCAUGCCCCACUUGUAACUAUGUAGCUUCAGUAAGUGCUCAAUAUCAAGGAUAAAUUGGCGAUGUAGUCAUAUAUGUC
antisense: GACAUAUAUGACUACAUCGCCAAUUUAUCCUUGAUAUUGAGCACUUACUGAAGCUACAUAGUUACAAGUGGGGCAUGCGCAACAAUUGCAAGUGAUGCUUUAAUGAACCCAUUUGAUGUAAUAAAGCAAAGAAUGCAAAUGCAUAACUCUCGCAAAAUUUAUAGAUCACUGAGUGAUUGUGCCCGCUAUAUCUAUCGCACUGAAGGCAUCACAGCCUUCUAUAUCUCGUAUCCAACUACUCUUUCCAUGA
B7: GS3606 (nucleic acid)
sense: UAAGGUUGUGUCGGACAACACGAUUCAUACGAGCACUCCCGUCAUCUAAAUCAUCAUCUGCGAGUACAAUUAAAACAGUAUCCUUUCGCUUCUUCCCCUUAACUAGGACAGUAUCUCCACGAAAAAGCUGCAAAGUUUCCAUGGUAUUAUUUGACAGUGCAAUAACAGAGUUAUCAUCGUUGAUGGCAUCUGUUACAAUUAAGGAAUUUGGCUUUUUCUUCUUUUUUAAAAUAGCAGUCGCAGUAGCAUCAAUCGUCUUUUGUUCAGCGCCAGAGGCAUCCUCAAGUUUAACUGUUUUUU
antisense: AAAAAACAGUUAAACUUGAGGAUGCCUCUGGCGCUGAACAAAAGACGAUUGAUGCUACUGCGACUGCUAUUUUAAAAAAGAAGAAAAAGCCAAAUUCCUUAAUUGUAACAGAUGCCAUCAACGAUGAUAACUCUGUUAUUGCACUGUCAAAUAAUACCAUGGAAACUUUGCAGCUUUUUCGUGGAGAUACUGUCCUAGUUAAGGGGAAGAAGCGAAAGGAUACUGUUUUAAUUGUACUCGCAGAUGAUGAUUUAGAUGACGGGAGUGCUCGUAUGAAUCGUGUUGUCCGACACAACCUUA
B8: GS3612 (nucleic acid)
sense: AUGAGCUGGUCUUUCAGUGGAAUAUCUGUCAAUAUUACAGCUUGAUAUGAAUCAAACUGGGAGAGAUCAGAAACUAAGCUUGUGGAGCUGUGAAUCUUAACAGGGGUGUAAGCAUUUAGUUCCGAAACUCGUUGAGCUGAGACAAUAUCUCUAGGUUUUCCUAUAUCUUCUGGGUUAAGAAAGAAUUGAGAUGAUAGGUCAGCGAUAGUUGCGGGAGCGGGAUCGUAUAAUGUUAGACUUUUAACUCCAGCCAGAGCUAUAUUCUUAGCUAUUUCGAUACCAAGACCUUUCAAGCCAAUAAUAAGAAUAUUCGAUGCACUCAUUCGUUUCAUAGCCUCGUGUCCAAGAACGUAGAGUUGCCUACUGUAUAAAGACUCAUCGAUAACAUUAUUAUUUUCUU
antisense: AAGAAAAUAAUAAUGUUAUCGAUGAGUCUUUAUACAGUAGGCAACUCUACGUUCUUGGACACGAGGCUAUGAAACGAAUGAGUGCAUCGAAUAUUCUUAUUAUUGGCUUGAAAGGUCUUGGUAUCGAAAUAGCUAAGAAUAUAGCUCUGGCUGGAGUUAAAAGUCUAACAUUAUACGAUCCCGCUCCCGCAACUAUCGCUGACCUAUCAUCUCAAUUCUUUCUUAACCCAGAAGAUAUAGGAAAACCUAGAGAUAUUGUCUCAGCUCAACGAGUUUCGGAACUAAAUGCUUACACCCCUGUUAAGAUUCACAGCUCCACAAGCUUAGUUUCUGAUCUCUCCCAGUUUGAUUCAUAUCAAGCUGUAAUAUUGACAGAUAUUCCACUGAAAGACCAGCUCAU
B9: GS3613 (nucleic acid)
sense: UGUAGCCGCAACAGUUUCAGCUGUCCCAGCUAGUCCUUCUGAUUGAAGUUUAUCAUUAGUAAUCCCUUUAGCGAUGGCGCCAUUAGUACCUUCGGUUGAGUUGCCAACAUUAGAUACUUCGCCAGCACCAUCAGAUACAUGUGUAGUUAAUUCUUCAGAGGUCUUGUCCGGACUAUCUAUUGCGAUCUUUACUGCAAUCUCACGACCUUGAACUUCUUUUCCAUUCAUUUCGGCAACAGCCCUAUUUUGAAGUUCAUUAGAUGCUAAGUUCACAAAGCCAAACCCACGGCCUUUCCGAGGUUCGUUGCGGGCCUGAAGCUUUUUAACCAUGAAUUUUGGAAUAGGACGCA
antisense: UGCGUCCUAUUCCAAAAUUCAUGGUUAAAAAGCUUCAGGCCCGCAACGAACCUCGGAAAGGCCGUGGGUUUGGCUUUGUGAACUUAGCAUCUAAUGAACUUCAAAAUAGGGCUGUUGCCGAAAUGAAUGGAAAAGAAGUUCAAGGUCGUGAGAUUGCAGUAAAGAUCGCAAUAGAUAGUCCGGACAAGACCUCUGAAGAAUUAACUACACAUGUAUCUGAUGGUGCUGGCGAAGUAUCUAAUGUUGGCAACUCAACCGAAGGUACUAAUGGCGCCAUCGCUAAAGGGAUUACUAAUGAUAAACUUCAAUCAGAAGGACUAGCUGGGACAGCUGAAACUGUUGCGGCUACA

Test system: E. necator
Assay: Leaf disc assay, dry inoculum (settling tower), decrease in disease severity / hyphal growth (Example 2)
Conditions: decrease in disease severity (hyphal growth) relative to untreated control, value ± SE; for % decrease =/− SE TP1: time point 1 (untreated control hyphal growth ≥50%); for % decrease =/− SE TP2: time point 2

Molecule | % decrease =/− SE TP1 | % decrease =/− SE TP2
B1 | 4 ± 5% | 5 ± 5%
B2 | 14 ± 4% | 
B3 |  | 7 ± 5%
B4 | 10 ± 6% | 5 ± 6%
B5 | 13 ± 8% | 9 ± 6%
B6 | 22 ± 6% | 14 ± 6%
B7 | 3 ± 6% | 9 ± 7%
B8 | 22 ± 6% | 
B9 | 11 ± 3% | 
